Measured values taken from paper PMC3718736.

Molecular target: VHH2-Fc antibody (VHH C2 fused to the Fc of human IgG1) (llama (Lama glama))
Assay: SPR; Biacore 3000; […] (10 mM acetate pH 3.5); […]

Sequence of VHH2-Fc antibody (VHH C2 fused to the Fc of human IgG1) (llama (Lama glama)) (heavy, as listed by the source): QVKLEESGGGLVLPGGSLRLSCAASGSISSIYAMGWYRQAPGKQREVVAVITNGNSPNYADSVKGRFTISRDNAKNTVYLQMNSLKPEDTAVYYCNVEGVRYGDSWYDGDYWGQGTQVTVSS

Substance: α-cobratoxin (from UniProt P01391 1-71) (natural protein)
- koff: 5e-05 s⁻¹
